The source of these data is US20160002318A1.

Bounds are passed on as bounds.

Common to all, as to assay: cell-based or functional assay
The target of assay [1] is HA of influenza B virus B/Brisbane/60/2008 (live virus) (influenza B virus B/Brisbane/60/2008).
Assay [2] deals with HA of influenza B virus B/Florida/04/2006 (live virus) (influenza B virus B/Florida/04/2006).
Assay [3] has as its target HA of influenza B virus B/Malaysia/2506/2004 (live virus) (influenza B virus B/Malaysia/2506/2004).
In assay [4] the target is HA of influenza B virus B/Harbin/7/1994 (live virus) (influenza B virus B/Harbin/7/1994).

B1: CR11036 (antibody, V domains shown)
VH: EVQLVQSGAEVKKPGASVTVSCKASGYAFTSYYLHWVRQAPGQGLEWMGIMNLHGGSTTYAQKFQGRVTMTRDTSTRTVYMELSGLRSEDSAVYYCARESPDSSGYPGYYGMDVWGQGTTVTVSS
VL: EIVLTQSPGTLSLSPGERATLSCRASQSVSSDFFAWYQQKRGQTPTLLIYGTSTRATGIPDRFSGSGSGTDFTLSVARLEPEDFAVYYCQQYGSSTWTFGQGTKVEIK
Regarding B1, the HI titers in assay [1] and in assay [2] was above 10 µg/mL throughout. Further, the VNA titers was below 0.14 µg/mL in assay [1], below 0.06 µg/mL in assay [2] and 0.02 µg/mL in assay [4]. In assay [3], this molecule came in with a VNA titers in µg/ml (*assay was done with 25 TCIDs) of 0.22 µg/mL.

B2: CR11038 (antibody, V domains shown)
VH: EVQLVESGAEVKKPGASVKVSCKASGYAFTSYYLHWVRQAPGQGLEWMGIMNPHGGSTTYAQKFQGRVTMTRDTSTSTVYMELSSLRSEDTAVYYCARESPDSSGYPGYYGMDVWGQGTTVTVSS
VL: SYELTQPPSASGTPGQRVTMSCSGSRSNIGSNPVSWFQQLPGMVPKLLIYTNDQRPSGVPDRFSGSKSGPSASLAISGLQSEDEADYYCAAWDDSLKGWVFGGGTKLTVL
On to B2, for which the HI titers in assay [1] was 0.31 µg/mL; in assay [2], 1.25 µg/mL. The VNA titers in assay [1] is 0.55 µg/mL; in assay [2], below 0.06 µg/mL; in assay [4], 0.05 µg/mL. In assay [3], this molecule gave a VNA titers in µg/ml (*assay was done with 25 TCIDs) of 2.1 µg/mL.

B3: CR11039 (antibody, V domains shown)
VH: EVQLVQSGAEVKKPGESVKISCKTSGYAFTGYGISWVRQAPGQGLEWMGWINTYKFNTNYAQNLQGRVTMTIDTSTSAAYMELRSLRYEDTAVYFCARDWAGPFGNAFDVWGQGTMVTVSS
VL: IQMTQSPSSLSASIGDRVAITCQASQDISDYLNWYQQQPGKAPKLLLYGASNLETGVPSRFSGSGSGTDFTFTISSLQPEDIATYYCQQYGNLPPTFGGGTKLEIK
On to B3, for which the HI titers was 0.44 µg/mL in assay [1] and 0.63 µg/mL in assay [2]. Besides, the values for the VNA titers in assay [1], in assay [2] and in assay [4] were below 0.14 µg/mL, below 0.06 µg/mL and 0.02 µg/mL, respectively. This molecule returned a VNA titers in µg/ml (*assay was done with 25 TCIDs) in assay [3] of 0.06 µg/mL.

B4: CR8031 (antibody, V domains shown)
VH: EVQLVESGGGLVQPGRSLRLSCAASGFTFDEYIMHWVRQAPGKGPEWVAGINWKGNFMGYADSVQGRFTISRDNAKNSLYLQMNSLRADDTALYYCAKDRLESSAMDILEGGTFDIWGQGTMVT
VL: QSALTQPASVSGSPGQSITISCTGTSSDVGGYNYVSWYQQHPGKAPKLMIYDVSSRPSGVSNRFSGSKSGDTASLSISGLQAEDEADYYCSSYTSSSTHVFGTGTKVTVL
Take B4: the VNA titers in assay [2] is 0.88 µg/mL; in assay [4], 1.24 µg/mL. The same molecule had a VNA titers in µg/ml (*assay was done with 25 TCIDs) in assay [3] above 50 µg/mL.

B5: CR8033 (antibody, V domains shown)
VH: EVQLVETGGGLVQPGRSLRLSCAASGFSFDEYTMHWVRQAPGKGLEWVAGINWKGNFMGYADSVQGRFTISRDNGKNSLYLQMNSLRAEDTALYYCAKDRLESSAMDILEGGTFDIWGQGTMVT
VL: EIVLTQSPGTLSLSPGERATLSCRASQSVSSSYLAWYQQKPGQAPRLLIYGASTRATGIPARFSGSGSGTDFTLTISRLEPEDLAVYYCQQYGSSPWTFGQGTKVEIK
As to B5, the HI titers in assay [1] is above 50 µg/mL; in assay [2], 0.22 µg/mL; in assay [3], above 50 µg/mL; in assay [4] it was 0.39 µg/mL. The VNA titers in assay [1] came to 5.95 µg/mL; in assay [2], 0.02 µg/mL; in assay [4], 0.03 µg/mL. Also, the VNA titers in µg/ml (*assay was done with 25 TCIDs) in assay [3] was found to be 0.88 µg/mL.

B6: CR11035 (antibody, V domains shown)
VH: QVQLVQSGAEVKKPGSSVKVSCKTSGYAFNGYGISWVRQAPGQGLEWVAWINTYKVNTHYAQNLRGRVTVSIDTSTTTAYMELRSLRSDDTAVYYCARDWGGPFGNAFDFWGQGTMVTVSS
VL: DIQMTQSPSSLAASIGDSVTITCRASQSVGSYLNWYQQKPGKAPKLLIYGASNVQSGVPSRFSGSESGTESTLTINNLQPEDSATYYCQQSYSTPRTFGQGTKVEIK
Regarding B6, the values for the HI titers in assay [1] and in assay [2] were 0.26 µg/mL and above 10 µg/mL, respectively. Besides, the VNA titers is 0.93 µg/mL in assay [1], below 0.06 µg/mL in assay [2] and 0.16 µg/mL in assay [4]. In assay [3], this molecule showed a VNA titers in µg/ml (*assay was done with 25 TCIDs) of 0.53 µg/mL.

B7: CR10023 (antibody, V domains shown)
VH: EVQLVETGGGLVQPGRSLRLSCAASGFTFDDYAMHWVRQAPGKGLEWVSGINWVSTTMGYADSVKGRFTISRDNAKNSLYLQMNSLRAEDTALYYCAKDRLESAAIDILEGGTFDIRGQGTMVTVSS
VL: QSALTQPPSASGSPGQSVTISCTGTSSDVGGYNYVSWYQQHPGKAPKLMIYDVSKRPSGVPDRFSGSKSGNTASLTISGLQAEDEAEYYCSSYASGSTYVFGTGTKVTVL
In the case of B7, the HI titers was above 50 µg/mL in assay [1], 1.56 µg/mL in assay [2], above 50 µg/mL in assay [3] and 1.1 µg/mL in assay [4]. In addition, the VNA titers was 7.07 µg/mL in assay [1], below 0.55 µg/mL in assay [2] and 0.26 µg/mL in assay [4]. In assay [3], the VNA titers in µg/ml (*assay was done with 25 TCIDs) was 12.5 µg/mL.

B8: CR8059 (antibody, V domains shown)
VH: EVQLVQSGAEVKKPGASVRVSCRASGYIFTESGITWVRQAPGQGLEWMGWISGYSGDTKYAQKLQGRVTMTKDTSTTTAYMELRSLRYDDTAVYYCARDVQYSGSYLGAYYFDYWSPGTLVTVSS
VL: SYVLTQPPSASGTPGQRVTISCSGSSSNIGTNYVYWYQQFPGTAPKLLIYRSYQRPSGVPDRFSGSKSGSSASLAISGLQSEDEADYYCATWDDSLNGWVFGGGTKLTVL
In the case of B8, the HI titers in assay [1], in assay [2], in assay [3] and in assay [4] was above 50 µg/mL each time. Besides, the VNA titers turned out to be 4.55 µg/mL in assay [1], 3.23 µg/mL in assay [2] and 2.39 µg/mL in assay [4]. This molecule displayed a VNA titers in µg/ml (*assay was done with 25 TCIDs) in assay [3] of 17.7 µg/mL.

B9: CR8071 (antibody, V domains shown)
VH: QVQLVQSGAEVKKPGASVRVSCRASGYIFTESGITWVRQAPGQGLEWMGWISGYSGDTKYAQKLQGRVTMTKDTSTTTAYMELRSLRYDDTAVYYCARDVQYSGSYLGAYYFDYWSPGTLVTVSS
VL: QSVLTQPPSASGTPGQRVTISCSGSSSNIGTNYVYWYQQFPGTAPKLLIYRSYQRPSGVPDRFSGSKSGSSASLAISGLQSEDEADYYCATWDDSLDGWVFGGGTKLTVLR
As for B9, the HI titers in assay [1], in assay [2], in assay [3] and in assay [4] was above 50 µg/mL each time. The VNA titers in assay [1] was 3.72 µg/mL; in assay [2] it was 2.12 µg/mL; in assay [4], 2.34 µg/mL. In assay [3], the VNA titers in µg/ml (*assay was done with 25 TCIDs) is 14.9 µg/mL.

B10: CR8034 (antibody, V domains shown)
VH: EVQLVETGGGLVQPGRSLRLSCAASGFTFDEYIMHWVRQAPGKGPEWVAGINWKGNFMGYADSVQGRFTISRDNAKNSLYLQMNSLRADDTALYYCAKDRLESSAMDILEGGTFDIWGQGTMVTVSS
VL: DIQMTQSPSSLSASVGDRVTITCRASQGIRNDLGWYQQKPGKAPKRLIYAASSLQSGVPSRFSGSGSGTDFTLTISSLQPEDFATYYCQQANTYPLTFGGGTKLEIK
On to B10, for which the VNA titers came out at 0.12 µg/mL in assay [2] and 0.29 µg/mL in assay [4]. The molecule further came in with a VNA titers in µg/ml (*assay was done with 25 TCIDs) in assay [3] of 2.31 µg/mL.

B11: CR8032 (antibody, V domains shown)
VH: EVQLVESGGGLVQPGRSLRLSCAASGFSFDEYIMHWVRQAPGKGLEWVAGINWKGNFMGYADSVQGRFTISRDNGKNSLYLQMNSLRAEDTALYYCAKDRLESSAMDILEGGTFDIWGQGTMVTVSS
VL: QSALTQPASVSGSPGQSITISCTGTRRDVGDYKYVSWYQQHPGKAPKLMIYDVSNRPSGVSNRFSGSKSGTTASLTISGLQAEDEADYYCSSYTTSNTRVFGGGTKLTVL
B11: the VNA titers in assay [2] and in assay [4] was 0.69 µg/mL throughout. In assay [3], this molecule displayed a VNA titers in µg/ml (*assay was done with 25 TCIDs) of 3.88 µg/mL.

B12: CR8035 (antibody, V domains shown)
VH: EVQLVESGGGLVQPGRSLRLSCAASGFTFDEYIMHWVRQAPGKGPEWVAGINWKGNFMGYADSVQGRFTISRDNAKNSLYLQMNSLRADDTALYYCAKDRLESSAMDILEGGTFDIWGQGTMVTVSS
VL: SSELTQDPAVSVALGQTVRITCQGDSLRSYYASWYQQKPGQAPVLVIYGKNNRPSGIPDRFSGSSSRNTASLTITGAQAEDEADYYCDSRDSSGTHYVFGGGTKVTVL
B12: the VNA titers in assay [2] and in assay [4] was 0.66 µg/mL in each case. In addition, the VNA titers in µg/ml (*assay was done with 25 TCIDs) in assay [3] was determined as 4.46 µg/mL.
